Results: US20140213513A1 (Sanofi, priority 2012, published 2014)
*1 amine or outer side, *2 acyl side, *3 side chain or, on linkers, in order; H or OH if unused. Where no end group is shown, it is not given here. Side-chain parts run from the residue outwards. [ ]: non-standard residue; d: D form. The star is where a group is joined. γGlu = O=C(O)[C@H](CCC(=O)[*:2])N[*:1]; Palmitoyl = CCCCCCCCCCCCCCCC(=O)*; Aib = CC(C)(N)C(=O)O

B1: exendin-4 peptide analogue SEQ ID NO: 8 (peptide)
peptide: Y[Aib]QGTFTSDLSIQK([γGlu-Palmitoyl])EKLAA[Aib]EFIEWLKNTGPSSGAPPPS-NH2
modifications: N-terminus assumed
SMILES: CCCCCCCCCCCCCCCC(=O)N[C@@H](CCC(=O)NCCCC[C@H](NC(=O)[C@H](CCC(N)=O)NC(=O)[C@@H](NC(=O)[C@H](CO)NC(=O)[C@H](CC(C)C)NC(=O)[C@H](CC(=O)O)NC(=O)[C@H](CO)NC(=O)[C@@H](NC(=O)[C@H](Cc1ccccc1)NC(=O)[C@@H](NC(=O)CNC(=O)[C@H](CCC(N)=O)NC(=O)C(C)(C)NC(=O)[C@@H](N)Cc1ccc(O)cc1)[C@@H](C)O)[C@@H](C)O)[C@@H](C)CC)C(=O)N[C@@H](CCC(=O)O)C(=O)N[C@@H](CCCCN)C(=O)N[C@@H](CC(C)C)C(=O)N[C@@H](C)C(=O)N[C@@H](C)C(=O)NC(C)(C)C(=O)N[C@@H](CCC(=O)O)C(=O)N[C@@H](Cc1ccccc1)C(=O)N[C@H](C(=O)N[C@@H](CCC(=O)O)C(=O)N[C@@H](Cc1c[nH]c2ccccc12)C(=O)N[C@@H](CC(C)C)C(=O)N[C@@H](CCCCN)C(=O)N[C@@H](CC(N)=O)C(=O)N[C@H](C(=O)NCC(=O)N1CCC[C@H]1C(=O)N[C@@H](CO)C(=O)N[C@@H](CO)C(=O)NCC(=O)N[C@@H](C)C(=O)N1CCC[C@H]1C(=O)N1CCC[C@H]1C(=O)N1CCC[C@H]1C(=O)N[C@@H](CO)C(N)=O)[C@@H](C)O)[C@@H](C)CC)C(=O)O
B2: exendin-4 peptide analogue SEQ ID NO: 65 (peptide)
peptide: YAEGTFTSDLSKQKEEEAVRLFIEWLKAGGPSSGAPPPS
modifications: Aib at 2; Lys14 side-chain NH2 acylated with (S)-4-Carboxy-4-octadecanoylamino-butyryl- (yE-x70); C-terminal amide
B3: exendin-4 peptide analogue SEQ ID NO: 33 (peptide)
peptide: Y[Aib]QGTFTSDLSIQK([γGlu-Palmitoyl])EKRAALEFIEWLKNTGPSSGAPPPS-NH2
modifications: N-terminus assumed
SMILES: CCCCCCCCCCCCCCCC(=O)N[C@@H](CCC(=O)NCCCC[C@H](NC(=O)[C@H](CCC(N)=O)NC(=O)[C@@H](NC(=O)[C@H](CO)NC(=O)[C@H](CC(C)C)NC(=O)[C@H](CC(=O)O)NC(=O)[C@H](CO)NC(=O)[C@@H](NC(=O)[C@H](Cc1ccccc1)NC(=O)[C@@H](NC(=O)CNC(=O)[C@H](CCC(N)=O)NC(=O)C(C)(C)NC(=O)[C@@H](N)Cc1ccc(O)cc1)[C@@H](C)O)[C@@H](C)O)[C@@H](C)CC)C(=O)N[C@@H](CCC(=O)O)C(=O)N[C@@H](CCCCN)C(=O)N[C@@H](CCCNC(=N)N)C(=O)N[C@@H](C)C(=O)N[C@@H](C)C(=O)N[C@@H](CC(C)C)C(=O)N[C@@H](CCC(=O)O)C(=O)N[C@@H](Cc1ccccc1)C(=O)N[C@H](C(=O)N[C@@H](CCC(=O)O)C(=O)N[C@@H](Cc1c[nH]c2ccccc12)C(=O)N[C@@H](CC(C)C)C(=O)N[C@@H](CCCCN)C(=O)N[C@@H](CC(N)=O)C(=O)N[C@H](C(=O)NCC(=O)N1CCC[C@H]1C(=O)N[C@@H](CO)C(=O)N[C@@H](CO)C(=O)NCC(=O)N[C@@H](C)C(=O)N1CCC[C@H]1C(=O)N1CCC[C@H]1C(=O)N1CCC[C@H]1C(=O)N[C@@H](CO)C(N)=O)[C@@H](C)O)[C@@H](C)CC)C(=O)O

How the values were obtained:
Assay in all cases: cell-based or functional assay
human GLP-1 receptor = human GLP-1 receptor (human, UniProt P43220 24-463)
human GIP receptor = target: T1, human GIP receptor (human, UniProt P48546 22-466)
T1 sequence (looked up): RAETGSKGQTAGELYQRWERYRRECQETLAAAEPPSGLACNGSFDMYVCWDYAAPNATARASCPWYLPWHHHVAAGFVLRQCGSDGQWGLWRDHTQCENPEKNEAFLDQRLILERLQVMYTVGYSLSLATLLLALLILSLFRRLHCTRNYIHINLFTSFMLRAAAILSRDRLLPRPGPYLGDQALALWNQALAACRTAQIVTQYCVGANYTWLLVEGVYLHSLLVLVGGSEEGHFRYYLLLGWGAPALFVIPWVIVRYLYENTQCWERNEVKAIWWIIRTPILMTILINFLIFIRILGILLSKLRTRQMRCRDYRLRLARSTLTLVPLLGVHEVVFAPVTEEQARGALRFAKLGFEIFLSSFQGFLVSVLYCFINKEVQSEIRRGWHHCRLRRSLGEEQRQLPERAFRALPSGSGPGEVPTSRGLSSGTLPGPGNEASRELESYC

human glucagon receptor = human glucagon receptor (human, UniProt P47871 26-477)
Sequence of human glucagon receptor (P47871 26-477): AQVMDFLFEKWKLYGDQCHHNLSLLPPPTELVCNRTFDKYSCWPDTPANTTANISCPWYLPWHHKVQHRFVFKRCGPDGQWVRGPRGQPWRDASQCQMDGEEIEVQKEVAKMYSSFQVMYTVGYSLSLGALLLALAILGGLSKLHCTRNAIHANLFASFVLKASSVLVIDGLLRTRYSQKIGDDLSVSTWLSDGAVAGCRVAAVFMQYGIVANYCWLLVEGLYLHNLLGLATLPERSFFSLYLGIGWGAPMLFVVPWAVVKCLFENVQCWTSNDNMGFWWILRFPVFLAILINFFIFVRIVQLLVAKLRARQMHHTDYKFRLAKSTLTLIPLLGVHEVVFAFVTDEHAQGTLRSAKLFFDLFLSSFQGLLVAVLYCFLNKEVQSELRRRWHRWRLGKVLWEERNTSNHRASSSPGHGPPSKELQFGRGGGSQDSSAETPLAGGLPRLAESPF

Row | Molecule | EC50 hGLP-1 R (human GLP-1 receptor) | EC50 hGIP R (human GIP receptor) | EC50 hGLUC R (human glucagon receptor)
1 | Tyr(1)Ile(12)-GLP1 (peptide) | 0.005 nM | 3.66 nM | 
2 | B1 | 0.0087 nM | 0.026 nM | 0.803 nM
3 | B2 |  | 0.012 nM | 26.8 nM
4 | B3 |  | 0.0882 nM | 0.109 nM
